# Measured values: publication PMC12207370, “Macrocyclic Peptide Probes for Immunomodulatory Protein CD59: Potent Modulators of Bacterial Toxin Activity and Antibody‐Dependent Cytotoxicity” (Angewandte Chemie (International Ed. in English), 2025)
# Target: T1, biotinylated CD59 (Homo sapiens, UniProt P13987)
# T1 construct: Recombinant soluble human CD59 with an additional C-terminal cysteine residue
# T1 sequence (P13987 26-102 limits assumed): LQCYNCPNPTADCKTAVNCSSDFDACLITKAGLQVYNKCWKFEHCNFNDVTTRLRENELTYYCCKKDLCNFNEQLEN
# Test: mRNA-display cyclic peptide screen against CD59-biotin, NGS abundance after 6th selection round
# Details: for Counts (raw counts for peptide sequence), Seq I: NGS sample Seq I; for Counts (raw counts for peptide sequence), Seq I / Counts (raw counts for peptide sequence), Seq II / Counts Seq I / Counts Seq II: sheet R6 (6th selection round); for Counts (raw counts for peptide sequence), Seq II: NGS sample Seq II; for Percentage of the pool, averaged across the two sequencing samples: average of Seq I and Seq II; for Percentage of the pool, averaged across the two sequencing samples / Percentage of the pool, Seq I / Percentage of the pool, Seq II / Percentage Seq I / Percentage Seq II / Percentage Average: sheet R6; for Percentage of the pool, Seq I: counts normalised by total counts of NGS sample Seq I; for Percentage of the pool, Seq II: counts normalised by total counts of NGS sample Seq II; for Percentage Seq I: counts normalised by total counts of sample Seq I; for Percentage Seq I / Percentage Seq II: percentage of the pool; for Percentage Seq II: counts normalised by total counts of sample Seq II; for Percentage Average: percentage of the pool averaged across the two sequencing samples; for Counts Seq I / Counts Seq II: raw NGS counts of peptide sequence; for Counts Seq I: sequencing sample Seq I; for Counts Seq II: sequencing sample Seq II
# Method in brief: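 Peptide–mRNA fusions were made by in vitro translation with a customised PURE express kit. The kit lacked release factor 1 and methionine and was supplemented with […] initiator tRNA carrying N-chloroacetyl-d-tyrosine. Thioether macrocycles were formed, then enriched and amplified over iterative rounds on CD59-biotin immobilised on streptavidin beads. NGS read counts per sequence were recorded after the 6th selection round.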
Sequence,"Counts (raw counts for peptide sequence), Seq I","Counts (raw counts for peptide sequence), Seq II","Percentage of the pool, averaged across the two sequencing samples [%]","Percentage of the pool, Seq I [%]","Percentage of the pool, Seq II [%]",Percentage Seq I [%],Percentage Seq II [%],Percentage Average [%],Counts Seq I,Counts Seq II
SAWGNRQIKYY,65,6,0.014,0.015,0.014,,,,,
WRDRFDQCIL,60,5,0.013,0.014,0.012,,,,,
CFVNRLSDSLSL,,,,,,0.048,0.070,0.059,212,30
LWWSDFYLCVVVRQRQRQLGRGAE,65,7,0.016,0.015,0.016,,,,,
CFKKRLDTVST,,,,,,0.021,0.016,0.019,91,7
CFNSRLHIGAV,,,,,,0.041,0.058,0.050,181,25
SWTWGNRNSVRG,,,,,,0.043,0.065,0.054,190,28
GYLNECHTLYTL,,,,,,0.024,0.028,0.026,105,12
CFAHRITDPNTQ,,,,,,0.027,0.014,0.020,117,6
LLGARDYVRLWH,41,7,0.013,0.009,0.016,,,,,
KWGSSFFTLYRV,49,4,0.010,0.011,0.009,,,,,
CFLTRASQLSGT,44,4,0.010,0.010,0.009,,,,,
CFTGRLTIDAV,26,6,0.010,0.006,0.014,,,,,
FVTGNRDNTRG,80,6,0.016,0.018,0.014,,,,,
CFSSRVQSGDT,,,,,,0.214,0.190,0.202,936,82
FATGNRDHTRG,,,,,,0.027,0.014,0.020,117,6
CCGGRTFIYAWS,44,4,0.010,0.010,0.009,,,,,

Sequence,"Counts (raw counts for peptide sequence), Seq I","Counts (raw counts for peptide sequence), Seq II","Percentage of the pool, averaged across the two sequencing samples [%]","Percentage of the pool, Seq I [%]","Percentage of the pool, Seq II [%]",Percentage Seq I [%],Percentage Seq II [%],Percentage Average [%],Counts Seq I,Counts Seq II
SAWGSRQIQYY,,,,,,0.059,0.051,0.055,257,22
CFAGRLAIDAV,54,8,0.015,0.012,0.019,,,,,
YCWVRGSRNYT,,,,,,0.064,0.060,0.062,279,26
CFVNRLRSAESR,,,,,,0.141,0.144,0.143,618,62
CFGRRADPDGI,,,,,,0.040,0.030,0.035,174,13
WTCHLRHDGPHA,,,,,,1.997,2.114,2.056,8737,911
FVTSNRDHTRG,23,6,0.010,0.005,0.014,,,,,
CFASRTLLNTSV,,,,,,0.102,0.104,0.103,446,45
VYGSRYASIPFC,45,9,0.016,0.010,0.021,,,,,
FVTGNRDHTHG,45,5,0.011,0.010,0.012,,,,,
CFSRRLTVGAI,40,6,0.012,0.009,0.014,,,,,
CAWGNRYIAYY,,,,,,0.078,0.067,0.073,342,29
ISWGNGSLAFY,,,,,,0.147,0.116,0.132,643,50
SAWGNQQIQYY,,,,,,0.028,0.026,0.027,124,11
CFIRRSIESGTA,56,10,0.018,0.013,0.023,,,,,
STYNDFFRVPC,,,,,,0.149,0.200,0.174,650,86
CFSRRLTAGAS,,,,,,0.024,0.028,0.026,106,12
